Experiments:
mouse iR1 wild type = biological target: T1, mouse iR1 wild type (mouse); assay: FACS, MEF-DKO cells, 3 µg/ml
T1 construct: wild type, expressed on cells; also called mouse iRhom1 wild type

hiR1-FL-WT-T7 = biological target: T2, hiR1-FL-WT-T7 (human, UniProt Q96CC6 1-855); assay: FACS, MEF-DKO cells, 3 µg/ml
T2 construct: on MEF-DKO cells
T2 sequence: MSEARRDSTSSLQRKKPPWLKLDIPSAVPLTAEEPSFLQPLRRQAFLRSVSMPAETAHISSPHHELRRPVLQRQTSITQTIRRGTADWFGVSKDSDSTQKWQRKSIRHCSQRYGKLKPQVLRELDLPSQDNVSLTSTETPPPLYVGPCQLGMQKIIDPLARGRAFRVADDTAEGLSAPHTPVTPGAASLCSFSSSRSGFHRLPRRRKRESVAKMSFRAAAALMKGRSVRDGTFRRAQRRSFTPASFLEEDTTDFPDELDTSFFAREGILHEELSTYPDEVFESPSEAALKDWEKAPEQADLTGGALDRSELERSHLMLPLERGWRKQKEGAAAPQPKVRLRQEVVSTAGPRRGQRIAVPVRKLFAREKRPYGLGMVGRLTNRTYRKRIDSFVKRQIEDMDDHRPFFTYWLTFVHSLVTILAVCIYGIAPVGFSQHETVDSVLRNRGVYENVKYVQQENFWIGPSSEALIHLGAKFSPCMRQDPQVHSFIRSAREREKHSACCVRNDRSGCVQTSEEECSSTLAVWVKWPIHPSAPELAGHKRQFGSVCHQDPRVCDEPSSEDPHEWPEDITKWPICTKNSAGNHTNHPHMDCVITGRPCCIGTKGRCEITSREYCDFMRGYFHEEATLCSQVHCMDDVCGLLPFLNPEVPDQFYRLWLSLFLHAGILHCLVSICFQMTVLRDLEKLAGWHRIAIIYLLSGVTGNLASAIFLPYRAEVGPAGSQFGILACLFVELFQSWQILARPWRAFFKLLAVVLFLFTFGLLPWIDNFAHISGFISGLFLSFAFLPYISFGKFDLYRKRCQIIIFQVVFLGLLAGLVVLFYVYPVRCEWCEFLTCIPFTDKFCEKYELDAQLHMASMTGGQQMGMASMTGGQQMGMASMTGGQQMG

[1] = biological target: T3, human iRhom2, endogenously expressed (human, UniProt Q6PJF5 1-856); assay: cell-based or functional assay
T3 sequence: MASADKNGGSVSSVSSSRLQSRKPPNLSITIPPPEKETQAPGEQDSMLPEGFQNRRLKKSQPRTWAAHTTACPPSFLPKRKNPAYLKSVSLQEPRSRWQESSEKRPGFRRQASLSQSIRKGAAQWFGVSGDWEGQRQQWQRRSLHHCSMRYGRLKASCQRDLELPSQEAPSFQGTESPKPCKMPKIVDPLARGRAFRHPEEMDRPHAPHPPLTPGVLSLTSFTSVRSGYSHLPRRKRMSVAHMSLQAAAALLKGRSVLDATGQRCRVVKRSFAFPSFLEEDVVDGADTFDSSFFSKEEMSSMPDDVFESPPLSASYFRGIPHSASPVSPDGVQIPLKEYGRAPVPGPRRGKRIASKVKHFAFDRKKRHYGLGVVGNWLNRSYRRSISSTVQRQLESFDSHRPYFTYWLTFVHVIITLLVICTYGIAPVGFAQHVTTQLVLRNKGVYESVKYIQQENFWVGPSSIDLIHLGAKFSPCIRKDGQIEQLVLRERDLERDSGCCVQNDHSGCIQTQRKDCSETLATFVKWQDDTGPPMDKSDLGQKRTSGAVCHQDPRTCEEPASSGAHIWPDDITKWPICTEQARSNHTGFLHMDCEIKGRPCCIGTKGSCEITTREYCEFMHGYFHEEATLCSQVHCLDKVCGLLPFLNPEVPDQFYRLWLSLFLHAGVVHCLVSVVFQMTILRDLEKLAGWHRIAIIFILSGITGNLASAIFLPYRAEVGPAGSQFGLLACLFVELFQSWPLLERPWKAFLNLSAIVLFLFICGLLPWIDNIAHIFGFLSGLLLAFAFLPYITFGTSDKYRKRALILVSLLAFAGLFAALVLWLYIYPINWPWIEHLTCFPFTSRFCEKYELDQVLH

B1: antibody 16 (antibody, V domains shown)
VH: QVTLKESGPGILQPSQTLSLTCSFSGFSLSTFALGVGWIRQPSGRGLEWLAHIWWDDDKYYNPALKSRLTISKDTSKNHVFLKIANVDTADTATYYCARITTYYYGMDYWGQGTSVTVSS
VL: DIVLSQSPATLSVTPGDSVSLFCRASQSIGNHLHWYQQESHASPRLLIKYASQSISGIPSRFSGSGSGTDFTLSINSVETEDFGMYFCQQSYNWPLTFGAGTKLELK
notes: mouse IgG, kappa light chain; also called clone #16; purified antibody 16
loss of binding vs wild type (mouse iR1 wild type): ≥ 95%
loss of binding vs wild type (hiR1-FL-WT-T7): ≥ 95%
LPS-induced TNFα release from PBMCs of healthy donors, percent inhibition, 1 µg/ml [1]: 81.3%
LPS-induced TNFα release from THP-1 cells, percent inhibition, 10 µg/ml, hybridoma-purified [1]: 65.4%
LPS-induced TNFα release from THP-1 cells, percent inhibition, recombinant antibody [1]: 70.7%
LPS-induced TNFα release from human macrophages of healthy donors, percent inhibition, 10 µg/ml [1]: 85.8%
PMA-induced HB-EGF release from PBMCs of healthy donors, percent inhibition, 1 µg/ml [1]: 71.6%
PMA-induced HB-EGF release from THP-1 cells, percent inhibition, 3 µg/ml [1]: 71.9%
PMA-induced HB-EGF release from U-937 cells, percent inhibition [1]: 99.6%
PMA-induced IL-6R release from PBMCs of healthy donors, percent inhibition, 1 µg/ml [1]: 84.3%
PMA-induced IL-6R release from THP-1 cells, percent inhibition, 1 µg/ml [1]: 72.5%
PMA-induced IL-6R release from U-937 cells, percent inhibition, 1 µg/ml [1]: 77.7%
PMA-induced IL-6R release from U-937 cells, percent inhibition, 3 µg/ml [1]: 77.4%
PMA-induced TGFα release from PC3 cells, percent inhibition, 1 µg/ml [1]: 13.9%
PMA-induced TNFα release from U-937 cells, percent inhibition, 1 µg/ml [1]: 91.6%
PMA-induced TNFα release from U-937 cells, percent inhibition, 3 µg/ml [1]: 91.9%

B2: antibody 46 (antibody, V domains shown)
VH: QVTLKESGPGILQPSQTLSLTCSFSGFSLSTFGMGVGWIRQPSGKGLEWLAHIWWDDDNYYNQALKSRLTISKDNTKNQVFLNIANVDTADTATYYCARIRSYDYDVRYAMDYWGQGTSVTVSS
VL: DIKMTQSPSSMYASLRERVTITCKASQDINSYLSWFQQKPGKSPKTLIYRANRLVDGVPSRFSGSGSGQDYSLTISSLEYEDLGIYYCQQYYEFPLTFGAGTRLELK
notes: mouse IgG, kappa light chain; also called clone #46
LPS-induced TNFα release from THP-1 cells, percent inhibition, recombinant antibody [1]: 36.1%

B3: antibody 48 (antibody, V domains shown)
VH: QVQLQQSGTELVRPGTSVKVSCKASGYAFTNYLIEWVKQRPGQGLEWIGVINPGSGFTKYNEKFKGKATLTADKSSSTVYMHLSSLTSEDSAVYFCARGLYRAMDYWGQGTSVTVSS
VL: DIQMTQSPASQSASLGESVTITCLASQTIATWLAWYQQKPGKSPQLLIYGATTLADGVPSRFSGGGSGTKFSFKISSLQAEDFVSYYCQQLYSTPYTFGGGTKLEIK
notes: mouse IgG, kappa light chain; also called clone #48; purified antibody 48
loss of binding vs wild type (mouse iR1 wild type): ≥ 60%
loss of binding vs wild type (hiR1-FL-WT-T7): ≥ 60%

B4: antibody 50 (antibody, V domains shown)
VH: QVQLQQSGAELVRPGASVKVSCKASGYAFSNYLIEWVKQRPGQGLEWIGVINPGSGFTKYNEKFKGKATLTADKSSSTAYMQLSSLTSEDSAVYFCARGLYRAMDYWGQGTSVTVSS
VL: DIQMTQSPASQSASLGESVTITCLASQTIGTWLAWYQQKPGKSPQLLIYAAASLADGVPSRFSGGGSGTKFSFKISSLQAEDFVNYYCQQIYSTPYTFGGGTKLEIK
notes: mouse IgG, kappa light chain; also called clone #50; purified antibody 50
loss of binding vs wild type (mouse iR1 wild type): ≥ 95%
loss of binding vs wild type (hiR1-FL-WT-T7): ≥ 95%

B5: antibody 5 (antibody, V domains shown)
VH: QVTLKESGPGILQPSQTLSLTCSFSGFSLSTFGMGVGWIRQPSGKGLEWLAHIWWDDEKYYNSALKSRLTISKATSKNQAFLKIANVDTADTATYYCARISNYGSNYWYFNVWGTGTTVTVSS
VL: QVVLTQSPALMSASPGEKVTMTCSAGSSVSCMYWYQQKPGSSPRVLIYDTSNLASGVPARFTGSGSGTSYSLTISRMEAEDAASYYCQQWNSYPLTFGAGTKLELK
notes: mouse IgG, kappa light chain; also called clone #5; purified antibody 5
loss of binding vs wild type (mouse iR1 wild type): ≥ 95%
loss of binding vs wild type (hiR1-FL-WT-T7): ≥ 95%
LPS-induced TNFα release from THP-1 cells, percent inhibition, 10 µg/ml, hybridoma-purified [1]: 69%
LPS-induced TNFα release from THP-1 cells, percent inhibition, recombinant antibody [1]: 70.5%
PMA-induced IL-6R release from THP-1 cells, percent inhibition, 1 µg/ml [1]: 64.1%
PMA-induced IL-6R release from U-937 cells, percent inhibition, 1 µg/ml [1]: 67%
PMA-induced TNFα release from U-937 cells, percent inhibition, 1 µg/ml [1]: 63.6%

B6: antibody 54 (antibody, V domains shown)
VH: QVTLKESGPGILQPSQTLSLTCSFSGFSLSTFGLGVGWIRQPSGKGLECLAHIWWDDDKYSNPALKSRLTISKDTSKNQVFLKIANVDSADTATYFCARILNYGSNYWYFDVWGTGTTVTVSS
VL: QIVLTQSPALMSASPGEKVTMTCSASSSISYMYWYQQKPGSSPRLLIYDTSNLASGVPVRFSGSGSGTSFSLTVSRMEAEDAATYYCQQWNSYPLTFGAGTKLELK
notes: mouse IgG, kappa light chain; also called clone #54
LPS-induced TNFα release from THP-1 cells, percent inhibition, recombinant antibody [1]: 67.9%

B7: antibody 57 (antibody, V domains shown)
VH: QVTLKESGPGILQPSQTLSLTCSFSGFSLSTFGMGVGWIRQPSGKGLEWLAHIWWDDDKYYNPALKSRLTISKDTSKNQIFLKIANVDTADSATFYCARIENYGSNYWYFDVWGTGTTVTVSS
VL: QIVLTQSPAIMSASPGEKVTMTCSASSSVSYMYWYQQKPGSSPRVLIYDTSNLASGVPVRFSGSGSGTSYSLTVSRMEAEDAATYYCQQWNSYPLTFGAGTKLELK
notes: mouse IgG, kappa light chain; also called clone #57
LPS-induced TNFα release from THP-1 cells, percent inhibition, recombinant antibody [1]: 59.7%

B8: antibody 22 (antibody, V domains shown)
VH: QVTLKESGPGILQPSQTLSLTCSFSGFSLSTFGMGVGWIRQPSGKGLEWLAHIWWDDEKYYNSALKSRLTISKATSKNQVFLKIANVDTADTATYYCARISNYGSNYWYFNVWGTGTTVTVSS
VL: QVVLTQSPALMSASPGEKVTMTCSAGSSVSYMYWYQQKPGSSPRVLIYDTSNLASGVPARFTGSGSGTSYSLTISRMEAEDAATYYCQQWNSYPLTFGAGTKLELK
notes: mouse IgG, kappa light chain; also called clone #22; purified antibody 22
loss of binding vs wild type (mouse iR1 wild type): ≥ 95%
loss of binding vs wild type (hiR1-FL-WT-T7): ≥ 95%
LPS-induced TNFα release from PBMCs of healthy donors, percent inhibition, 1 µg/ml [1]: 72.8%
LPS-induced TNFα release from THP-1 cells, percent inhibition, 10 µg/ml, hybridoma-purified [1]: 78.8%
LPS-induced TNFα release from THP-1 cells, percent inhibition, recombinant antibody [1]: 78.4%
LPS-induced TNFα release from human macrophages of healthy donors, percent inhibition, 10 µg/ml [1]: 78.8%
PMA-induced HB-EGF release from PBMCs of healthy donors, percent inhibition, 1 µg/ml [1]: 56.5%
PMA-induced HB-EGF release from THP-1 cells, percent inhibition, 3 µg/ml [1]: 77.7%
PMA-induced HB-EGF release from U-937 cells, percent inhibition [1]: 101%
PMA-induced IL-6R release from PBMCs of healthy donors, percent inhibition, 1 µg/ml [1]: 79.3%
PMA-induced IL-6R release from THP-1 cells, percent inhibition, 1 µg/ml [1]: 67.4%
PMA-induced IL-6R release from U-937 cells, percent inhibition, 1 µg/ml [1]: 74.5%
PMA-induced IL-6R release from U-937 cells, percent inhibition, 3 µg/ml [1]: 79%
PMA-induced TGFα release from PC3 cells, percent inhibition, 1 µg/ml [1]: 12.7%
PMA-induced TNFα release from U-937 cells, percent inhibition, 1 µg/ml [1]: 86.1%
PMA-induced TNFα release from U-937 cells, percent inhibition, 3 µg/ml [1]: 93.1%

B9: antibody 56 (antibody, V domains shown)
VH: QVTLKESGPGILQPSQTLSLTCSFSGFSLSTFGMGVGWIRQPSGKGLEWLTNIWWDDDKYYNSVLKSRLTISKDTSKNQVFLKIANVDTADTATYYCARIAAYGSNYWYFDVWGTGTTVTVSS
VL: QIVLTQSPAIMSASPGEKVTMTCSASSSVSYMYWYQQKPGSSPRVLIYDTSNLSSGVPVRFSGSGSGTSYSLTISRMEAEDAATYYCQQWSSYPLTFGAGTKLELK
notes: mouse IgG, kappa light chain; also called clone #56
LPS-induced TNFα release from THP-1 cells, percent inhibition, recombinant antibody [1]: 65.8%

B10: antibody 49 (antibody, V domains shown)
VH: QVTLKESGPGILQPSQTLSLTCSFSGFSLSTFGMGVGWIRQPSGKGLEWLAHIWWDDDKYYNPALQSRLTVSKDTAKNQVFLKIANVDTADTAIYYCARVGNYGSNYWYFAVWGTGTTVTVSS
VL: QIVLTQSPAIMSASPGEKVTMTCSASSSVSYMYWYQQKPGSSPRLLIYDTSNLASGVPVRFSGSGSGTSYSLTISRMEAEDAATYYCQQWNSYPLTFGAGTKLELK
notes: mouse IgG, kappa light chain; also called clone #49
LPS-induced TNFα release from THP-1 cells, percent inhibition, recombinant antibody [1]: 59.9%

Reference: US20240287172A1 (SCIRHOM, published 2024)
